In patent publication US20110257373A1 (published 2011):
Substitutions are numbered along the chain they refer to.

T1: human DC-SIGN (human, UniProt Q9NNX6 62-404, limits assumed)
T1 construct: Coated on ELISA wells; also called CD209; DC-SIGN protein
T1 sequence: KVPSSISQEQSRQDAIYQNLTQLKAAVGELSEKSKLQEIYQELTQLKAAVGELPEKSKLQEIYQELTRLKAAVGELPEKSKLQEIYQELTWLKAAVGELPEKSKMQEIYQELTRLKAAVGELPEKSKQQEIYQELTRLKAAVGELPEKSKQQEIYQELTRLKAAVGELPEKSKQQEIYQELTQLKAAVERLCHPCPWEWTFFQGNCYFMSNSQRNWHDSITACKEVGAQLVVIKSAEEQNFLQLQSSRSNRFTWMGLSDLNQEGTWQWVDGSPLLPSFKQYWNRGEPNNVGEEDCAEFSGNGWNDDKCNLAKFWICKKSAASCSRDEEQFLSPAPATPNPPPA

T2: DC-SIGNR (Homo sapiens (Human), UniProt Q9H2X3 78-399, limits assumed)
T2 construct: Bought (R&D Cat nr 162-D2)
T2 sequence: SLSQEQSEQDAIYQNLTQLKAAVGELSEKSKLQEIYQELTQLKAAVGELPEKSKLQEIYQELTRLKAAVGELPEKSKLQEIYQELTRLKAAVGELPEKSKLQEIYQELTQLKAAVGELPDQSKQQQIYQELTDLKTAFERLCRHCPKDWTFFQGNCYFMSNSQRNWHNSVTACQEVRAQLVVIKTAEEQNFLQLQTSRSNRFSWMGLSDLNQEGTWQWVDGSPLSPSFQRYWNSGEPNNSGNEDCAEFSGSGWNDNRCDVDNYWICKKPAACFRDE

B1: 1-13 (other)
VK dAb: DIQMTQSPSSLSASVGDRVTITCRASQGIWQELKWYQQKPGKAPRLLIYRGSSLQSGVPSRFSGSGSGTDFTLTISSLQPEDFATYYCQQSFYPPYTFGQGTKVEIKR
notes: human VK domain antibody, tested as phage particles; also called LIP1-13; LIP1-13 phage
B2: 1-23 (other)
VK dAb: B1 VK dAb with G28D, Q31R, K34R, R45K, G51A, S53N, F62L, S91T
notes: human VK domain antibody, tested as phage particles; also called LIP1-23; LIP1-23 phage
B3: 1-12 (other)
VK dAb: DIQMTQSPSSLSASVGDRVTITCRASRPIGTNLYWYQQKPGKAPKLLIVGGSFLQSGVPSRFSGSGSGTDFTLTISSLQPEDFATYYCGQRARYPGTFGQGTKVEIKR
notes: human VK domain antibody, tested as phage particles; also called LIP1-12; LIP1-12 phage
B4: DC-SIGN peptide (9xHIS tag, linker and the C-terminal end of DC-SIGN) (peptide)
peptide: HHHHHHHHHSGSGKKSAASCSRDEEQFLSPAPATPNPPPA
notes: also called HIS tagged DC-SIGN peptide
B5: LIP1-30 (other)
VH: EVQLLESGGGLVQPGGSLRLSCAASGFTFSGYSMAWVRQAPGKGLEWVSQIGPLGVKTYYADSVKGRFTISRDNSKNTLYLQMNSLRAEDTAVYYCAKLTSDAHDFDYWGQGTLVTVSS
notes: all other claims print 29
B6: LIP1-33 (other)
VH: EVQLLESGGGLVQPGGSLRLSCAASGFTFPSGTMGWVRQAPGKGLEWVSYIDPSGFMTYYADSVKGRFTISRDNSKNTLYLQMNSLRAEDTAVYYCAKSIVPRSGTFDYWGQGTLVTVSS
notes: Human VH domain antibody (dAb); also called LIP1-33 phage
B7: LIP1-28 (other)
VH: EVQLLESGGGLVQPGGSLRLSCAASGFTFVATPMHWVRQAPGKGLEWVSAISGSGGSTYYADSVKGRFTISRDNSKNTLYLQMNSLRAEDTAVYYCAKGWDPSLERFDYWGQGTLVTVSS
B8: 1-26 (other)
VH dAb: EVQLLESGGGLVQPGGSLRLSCAASGFTFSHYTMSWVRQAPGKGLEWVSSISSTGFKTYYADSVKGRFTISRDNSKNTLYLQMNSLRAEDTAVYYCAKWNPHRSTYFDYWGQGTLVTVSS
notes: human VH domain antibody, tested as phage particles; also called LIP1-26; LIP1-26 phage
B9: LIP1-29 (other)
VH: EVQLLESGGGLVQPGGSLRLSCAASGFTFDRRAMGWVRQAPGKGLEWVSSIESDGTRTYYADSVKGRFTISRDNSKNTLYLQMNSLRAEDTAVYYCAKHPGSSYVFDYWGQGTLVTVSS
notes: all other claims print 34
B10: 1-15 (other)
VK dAb: DIQMTQSPSSLSASVGDRVTITCRASRAIGTYLAWYQQKPGKAPKLLILWGSVLQSGVPSRFSGSGSGTDFTLTISSLQPEDFATYYCAQLAQRPSTFGQGTKVEIKR
notes: human VK domain antibody, tested as phage particles; also called LIP1-15; LIP1-15 phage
B11: LIP1-25 (other)
VH: EVQLLESGGGLVQPGGSLRLSCAASGFTFPDADMVWVRQAPGKGLEWVSSISDHGFNTYYADSVKGRFTISRDNSKNTLYLQMNSLRAEDTAVYYCAKSPLATFDYWGQGTLVTVSS
B12: LIP1-27 (other)
VH: EVQLLESGGGLVQPGGSLRLSCAASGFTFEQTDMHWARQAPGKGPEWVSSISPLGAFTYYADSVKGRFTISRDNSKNTLYLQMNSLRAEDTAVYYCAKSPLVRNNGQFDYWGQGTLVTVSS

Experiments:
human DC-SIGN [1] = biological target: T1, human DC-SIGN; assay: phage ELISA: DC-SIGN coated on the wells, serial dilutions of phage particles, detection with anti-M13 antibody-HRP and TMB, OD 450
Protocol: (§1) Phage particles from individual LIP1 clones were prepared, and serial dilutions of phage particles were tested in ELISA. The ELISA wells were coated overnight at 4° C. with DC SIGN (1-10 μg/ml in PBS or 0.1 M NaHCO₃ buffer, pH 9.6). After blocking the wells with PBS containing 2% skimmed-milk powder (PBSM), phage was incubated in PBSM for 1 hr. After washing with PBS, bound phage were detected using a conjugate of horseradish peroxidase with an anti-M13 monoclonal antibody (Amersham) using 3,3′,5,5′-tetramethylbenzidine as substrate.
as §1, with “For” for “Phage particles from individual LIP1 clones were prepared, and serial dilutions of”, “ELISA, the” for “particles were tested in ELISA. The”, “SIGN or DC SIGNR (R&D Cat nr 162-D2) at” for “SIGN”

LIP1-33 = biological target: B6; assay: competition phage ELISA; HIS tagged peptide in solution as competitor (data not shown)
human DC-SIGN [2] = biological target: T1, human DC-SIGN; assay: phage ELISA
human DC-SIGN [3] = biological target: T1, human DC-SIGN; assay: phage ELISA: DC-SIGN coated on the wells, serial dilutions of LIP1-33 phage, detection with anti-M13 antibody-HRP and TMB, OD450
Protocol: as §1, with “LIP1-33” for “individual LIP1 clones”, “DC SIGNR, neutravidin, DC” for “DC”, “SIGN or DC SIGN peptide” for “SIGN”, “substrate. HEL4 and VKdummy are non-binding negative controls.” for “substrate.”
as §1, with “For” for “Phage particles from individual LIP1 clones were prepared, and serial dilutions of”, “ELISA, the” for “particles were tested in ELISA. The”, “SIGN or DC SIGNR (R&D Cat nr 162-D2) at” for “SIGN”

DC-SIGNR = biological target: T2, DC-SIGNR; assay: phage ELISA: DC-SIGNR coated on the wells, serial dilutions of LIP1-33 phage, detection with anti-M13 antibody-HRP and TMB, OD450
Protocol: as §1, with “LIP1-33” for “individual LIP1 clones”, “DC SIGNR, neutravidin, DC” for “DC”, “SIGN or DC SIGN peptide” for “SIGN”, “substrate. HEL4 and VKdummy are non-binding negative controls.” for “substrate.”
as §1, with “For” for “Phage particles from individual LIP1 clones were prepared, and serial dilutions of”, “ELISA, the” for “particles were tested in ELISA. The”, “SIGN or DC SIGNR (R&D Cat nr 162-D2) at” for “SIGN”

[4] = biological target: B4; assay: phage ELISA: DC-SIGN peptide coated on the wells, serial dilutions of LIP1-33 phage, detection with anti-M13 antibody-HRP and TMB, OD450
Protocol: as §1, with “LIP1-33” for “individual LIP1 clones”, “DC SIGNR, neutravidin, DC” for “DC”, “SIGN or DC SIGN peptide” for “SIGN”, “substrate. HEL4 and VKdummy are non-binding negative controls.” for “substrate.”

| Binder | binding result (human DC-SIGN [1]) | binding result (human DC-SIGN [2]) | also measured |
| --- | --- | --- | --- |
| B1 | binds |  |  |
| B2 | binds |  |  |
| B3 | binds |  |  |
| B4 |  |  | binding result (LIP1-33): binds |
| B5 |  | binds |  |
| B6 |  |  | binding result (human DC-SIGN [3]): binds; binding result (DC-SIGNR): no binding; binding result [4]: binds |
| B7 |  | binds |  |
| B8 | binds |  |  |
| B9 | binds |  |  |
| B10 | binds |  |  |
| B11 |  | binds |  |
| B12 |  | binds |  |
